Measured values from the supplement of paper PMC10724198.
± gives the standard deviation of the averaged measurements.

These sequences were tested on Saccharomyces cerevisiae (assay: protein stability index of tFT-peptide fusion (C-terminal peptide) (PSI (0-1 scale)); higher = more stable (slower turnover)). Conditions: genetic background: das1 deletion; temperature: 30 C.
Description: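 MPS profiling in S. cerevisiae of the yeast C-terminome library: the last 12 aa of each annotated ORF are fused to the C-terminus of a sfGFP-mCherry timer, after a GGGS linker. Cells are FACS-sorted into 8 mCherry/sfGFP bins and deep-sequenced. PSI runs from 0 (unstable) to 1 (stable); wild type and das1Δ backgrounds, two technical replicates each.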

Row | Sequence | protein stability index
1 | HENSKCFTHYLI [AFR1 C-terminal 12 aa] | 0.684 ± 0.035
2 | HERKRNKVLNTT [CMR3 C-terminal 12 aa] | 0.704 ± 0.021
3 | HFYDRTNDLTNL [YNL144C C-terminal 12 aa] | 0.736 ± 0.024
4 | HIFEKKIFHTNL [YOL097W-A C-terminal 12 aa] | 0.706 ± 0.018
5 | HLAQMKMEQLLK [APQ12 C-terminal 12 aa] | 0.678 ± 0.015
6 | HLCWLRCACDGP [YLR154C-G C-terminal 12 aa] | 0.716 ± 0.0083
7 | HLSMVCDLELQL [NGL2 C-terminal 12 aa] | 0.738 ± 0.072
8 | HNLESLVVAFNE [SPO16 C-terminal 12 aa] | 0.6872 ± 0.003
9 | HPTSAEELVTMR [GLR1 C-terminal 12 aa] | 0.7175 ± 0.007
10 | HYPLNSIPFTVT [YMR326C C-terminal 12 aa] | 0.706 ± 0.019
11 | IADELDWLKFGI [GLN3 C-terminal 12 aa] | 0.906 ± 0.028
12 | ICAWLLFFETIH [BST1 C-terminal 12 aa] | 0.458 ± 0.018
13 | IDIPVQVKNSFI [YNR068C C-terminal 12 aa] | 0.711 ± 0.017
14 | IDLSKKLSFYNY [GMH1 C-terminal 12 aa] | 0.685 ± 0.043
15 | IDNVIISGKDEY [CCT5 C-terminal 12 aa] | 0.7033 ± 0.0056
16 | IDSLIENLRFQI [DBF4 C-terminal 12 aa] | 0.7414 ± 0.0037
17 | IEELLAGIRMSI [BIT61 C-terminal 12 aa] | 0.719 ± 0.028
18 | IEHVKYDNIVSP [UBC12 C-terminal 12 aa] | 0.6974 ± 0.0012
19 | IFMCIILANKHF [YFR052C-A C-terminal 12 aa] | 0.342 ± 0.02
20 | IFQSAISKAIRG [YBR109W-A C-terminal 12 aa] | 0.6726 ± 0.0032
21 | IFRDYFYKSPSP [PIG1 C-terminal 12 aa] | 0.739 ± 0.0098

Row | Sequence | protein stability index
22 | IFSSLVHYCNAG [LST4 C-terminal 12 aa] | 0.729 ± 0.013
23 | IFWLALIYNAIQ [LOH1 C-terminal 12 aa] | 0.479 ± 0.016
24 | IGDFFKNLNMAK [NUP159 C-terminal 12 aa] | 0.715 ± 0.026
25 | IGGLLKPSELDD [CRM1 C-terminal 12 aa] | 0.726 ± 0.032
26 | IGWSVFAEWLCV [CYK3 C-terminal 12 aa] | 0.504 ± 0.02
27 | IHRSVSELSRLH [MBB1 C-terminal 12 aa] | 0.705 ± 0.023
28 | IHSTKEEKNCNH [YDR095C C-terminal 12 aa] | 0.712 ± 0.017
29 | IIAIVFKILSPN [FAR10 C-terminal 12 aa] | 0.32 ± 0.023
30 | IIFVVLLCKKSR [ASG7 C-terminal 12 aa] | 0.299 ± 0.019
31 | IIQQNLKKIGII [GPA1 C-terminal 12 aa] | 0.696 ± 0.02
32 | IITGSTSTSSSN [MED8 C-terminal 12 aa] | 0.671 ± 0.017
33 | IKELENSRHEQS [MNN1 C-terminal 12 aa] | 0.713 ± 0.049
34 | IKPSAEVHINAL [VMA10 C-terminal 12 aa] | 0.686 ± 0.011
35 | IKPSWENEKNIS [ARG2 C-terminal 12 aa] | 0.69 ± 0.02
36 | ILGAYLIDCVCC [YGL069C C-terminal 12 aa] | 0.576 ± 0.045
37 | ILGNMEKKKNQD [EPS1 C-terminal 12 aa] | 0.733 ± 0.021
38 | ILWLKLEKRIEN [YLR339C C-terminal 12 aa] | 0.711 ± 0.025
39 | IMLTLLMFTGAV [PLB3 C-terminal 12 aa] | 0.402 ± 0.0044
40 | INIQQFAALLSK [CMD1 C-terminal 12 aa] | 0.66 ± 0.0085
41 | IPAKKTKISLDY [ELP4 C-terminal 12 aa] | 0.6845 ± 0.0032
42 | IPELHNLKPTCV [YBR238C C-terminal 12 aa] | 0.67 ± 0.012

Row | Sequence | protein stability index
43 | IPMTLTTLSTVF [UPA2 C-terminal 12 aa] | 0.619 ± 0.0083
44 | IQKLEEARNPQF [UPS1 C-terminal 12 aa] | 0.704 ± 0.046
45 | IRRHAYYNQDDD [SLA2 C-terminal 12 aa] | 0.677 ± 0.02
46 | ITERLFNAALDD [YBR232C C-terminal 12 aa] | 0.7089 ± 0.0038
47 | ITGLKNNIQKCS [YER068C-A C-terminal 12 aa] | 0.688 ± 0.0055
48 | ITHLKAILPKYL [CCA1 C-terminal 12 aa] | 0.695 ± 0.0085
49 | ITSLKSDEYLVQ [RET2 C-terminal 12 aa] | 0.73 ± 0.046
50 | IVHKSNFINNKK [OXA1 C-terminal 12 aa] | 0.7224 ± 0.0042
51 | IVLPMIKDYLFS [HLJ1 C-terminal 12 aa] | 0.678 ± 0.018
52 | IWKEVKRHQDFA [ATG20 C-terminal 12 aa] | 0.7235 ± 0.0023
53 | IWKPAGNLVGHS [MSI1 C-terminal 12 aa] | 0.698 ± 0.013
54 | IYDWAGEYPLAV [SHM2 C-terminal 12 aa] | 0.707 ± 0.026
55 | IYHKDGNKVLKE [YDR391C C-terminal 12 aa] | 0.706 ± 0.053
56 | IYKLEYYLLTMQ [YOR199W C-terminal 12 aa] | 0.574 ± 0.011
57 | IYRRRKNKIFFW [RCK1 C-terminal 12 aa] | 0.705 ± 0.012
58 | KAAINQQSTPLN [RPH1 C-terminal 12 aa] | 0.676 ± 0.016
59 | KAKFEGKKIKFD [BUD22 C-terminal 12 aa] | 0.678 ± 0.011
60 | KALIQRKGGKLE [RPL26A C-terminal 12 aa] | 0.6757 ± 0.0023
61 | KDEDEEADEDMK [PRE9 C-terminal 12 aa] | 0.711 ± 0.033
62 | KDRCGNVPHQSR [MRN1 C-terminal 12 aa] | 0.706 ± 0.0088
63 | KEASRRFDAGKI [SOD2 C-terminal 12 aa] | 0.6778 ± 0.0059

Row | Sequence | protein stability index
64 | KEKKDKKKKSKD [NOP56 C-terminal 12 aa] | 0.686 ± 0.025
65 | KELEFGLDRKYF [SLT2 C-terminal 12 aa] | 0.6989 ± 0.0057
66 | KELVKRRIVGEV [AEP3 C-terminal 12 aa] | 0.6815 ± 0.0042
67 | KGARSRFQKSYR [RPS16A C-terminal 12 aa] | 0.707 ± 0.011
68 | KGTFLANLTDLI [SWF1 C-terminal 12 aa] | 0.7347 ± 0.0012
69 | KHGTMQFYWRKT [YOR225W C-terminal 12 aa] | 0.692 ± 0.0073
70 | KHGVSAVKRYLR [CBP1 C-terminal 12 aa] | 0.6765 ± 0.0054
71 | KKDKPEGWDRLP [KTR6 C-terminal 12 aa] | 0.728 ± 0.046
72 | KKHSMKSRFKPY [YNL035C C-terminal 12 aa] | 0.696 ± 0.029
73 | KKKEDKGGLQRS [VHS3 C-terminal 12 aa] | 0.6842 ± 0.0022
74 | KKKNRSKIKFNY [PTH4 C-terminal 12 aa] | 0.724 ± 0.021
75 | KKSPGGPRQRIK [MAP1 C-terminal 12 aa] | 0.694 ± 0.033
76 | KLEKLKAEKTRR [YDL085C-A C-terminal 12 aa] | 0.669 ± 0.01
77 | KLMEAIFRIRTI [YKL106C-A C-terminal 12 aa] | 0.7668 ± 0.0015
78 | KLSNWLFGWNDL [ASM4 C-terminal 12 aa] | 0.753 ± 0.019
79 | KLVDVRKVYYSS [MRPS5 C-terminal 12 aa] | 0.7071 ± 0.0029
80 | KLYKNSDFNSEK [RRG7 C-terminal 12 aa] | 0.7 ± 0.0014
81 | KMDKRAKTSDSA [RPL8B C-terminal 12 aa] | 0.698 ± 0.0049
82 | KNLADIHKIMGF [MSW1 C-terminal 12 aa] | 0.6849 ± 0.00012
